Here are results for two substances from patent publication US6673902B2, “Cyclin D binding factor, and uses thereof” (St. Jude Children's Research Hospital, priority 1996, dated 2004).

One assay concerns the target T1, recombinant DMP1 (Mus musculus, UniProt Q8CE22).
T1 construct: made in house; host or cells: Sf9 insect cells, pAcYM1 baculovirus vector; used as crude lysate (~4 ng DMP1 per reaction)
T1 sequence (Q8CE22 1-761): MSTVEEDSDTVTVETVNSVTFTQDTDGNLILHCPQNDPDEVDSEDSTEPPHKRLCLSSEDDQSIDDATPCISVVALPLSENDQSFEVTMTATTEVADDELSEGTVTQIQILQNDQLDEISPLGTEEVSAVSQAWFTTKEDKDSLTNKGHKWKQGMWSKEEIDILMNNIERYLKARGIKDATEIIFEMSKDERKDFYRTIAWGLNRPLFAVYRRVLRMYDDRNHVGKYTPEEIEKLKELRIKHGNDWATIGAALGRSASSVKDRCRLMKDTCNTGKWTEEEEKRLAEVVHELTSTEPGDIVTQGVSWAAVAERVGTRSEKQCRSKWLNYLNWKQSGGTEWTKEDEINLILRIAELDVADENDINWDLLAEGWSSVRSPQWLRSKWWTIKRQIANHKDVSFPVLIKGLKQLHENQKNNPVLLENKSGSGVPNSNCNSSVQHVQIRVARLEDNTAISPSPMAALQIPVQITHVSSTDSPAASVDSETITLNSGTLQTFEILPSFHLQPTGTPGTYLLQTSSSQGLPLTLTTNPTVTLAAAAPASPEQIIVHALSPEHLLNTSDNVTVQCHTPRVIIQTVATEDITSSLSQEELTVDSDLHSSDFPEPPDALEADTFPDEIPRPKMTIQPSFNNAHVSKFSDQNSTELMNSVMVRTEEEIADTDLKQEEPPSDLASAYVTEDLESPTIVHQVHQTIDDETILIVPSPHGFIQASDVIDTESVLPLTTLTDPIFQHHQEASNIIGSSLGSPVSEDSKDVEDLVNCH
The assay can be described thus: EMSA competition with Sf9 lysates producing recombinant DMP1. Type of assay: binding. The note with it: excess unlabeled oligonucleotide. As to the method:
(§1) Double-stranded oligonucleotides containing potential DMP1 binding sites (BS1 and BS2) and mutated versions (M1-M4) (FIG. 5B) are end-labeled with ^32P using the Klenow fragment of DNA polymerase and α-^32P-dATP (6000 Ci/mmol; Dupont NEN) (8). Nuclear extracts from mouse NIH-3T3 or CTLL cells are prepared with buffer containing 0.4 M NaCl (2). Mammalian cell extracts (15 μg protein) or Sf9 lysates (corresponding to 5×10^2 infected cells) containing ˜4 ng recombinant DMP1 are mixed with 3 ng of ^32P-labeled probe (1×10^5 cpm) in 15 ul Binding buffer containing 2.5 μg of poly(dI-dC) and 2.5 μg BSA and incubated at 4° C. for 30 minutes. For competition experiments, the indicated amounts of unlabeled oligonucleotides are added to the reactions before addition of the labeled probe. In some experiments, a bacterially produced GST-Ets2 fusion protein containing the complete Ets2 DNA-binding domain (10) is used in place of Sf9 extracts containing recombinant DMP1. Protein-DNA complexes are separated on nondenaturing 4% polyacrylamide gels as described (8). Where indicated, antiserum to DMP1 together with 2.5 μg salmon testis DNA (Sigma; used to reduce nonspecific DNA binding activity caused by serum addition) is preincubated with extracts for 30 minutes at 4° C. prior to initiation of binding reactions. Immune complexes are either removed by adsorption to protein A-Sepharose beads (immunodepletion experiments) or are allowed to remain (“supershift” experiments).
(§2) Using electrophoretic mobility shift assays (EMSA) performed after mixing a titrated excess (3 ng) of ^32P-end labeled BS1 probe with Sf9 lysates producing DMP1 (˜4 ng recombinant protein per reaction), a BS1-containing protein complex is detected that was competed with an excess of unlabeled BS1 oligonucleotide but not with mutant oligonucleotides M1 and M2 (FIG. 6A). […] More subtle mutations within this region may be tolerated, because high concentrations of M4 competed for BS1 binding to both Ets2 and DMP1 in subsequent studies (FIG. 5B and see below). DMP1 also binds a BS2 probe, and the binding is competed by excess BS2 or BS1 (FIG. 6B). In agreement with the site selection frequencies (FIG. 5A), binding of ^32P-BS1 under equivalent conditions was competed more efficiently by excess unlabeled BS1 than by BS2 (FIG. 6B). […] In agreement, Ets2 binding to BS1 could be competed with excess unlabeled BS1 and M3, but not by BS2 (FIG. 6C). Therefore, although both DMP1 and Ets2 can each bind to BS1 sequences, their exclusive interactions with BS2 and M3, respectively, help to distinguish DMP1 and Ets binding activities (summarized in FIG. 5B).

For another assay, the target named is T2, GST-Ets2 fusion protein (Homo sapiens, UniProt P15036).
T2 construct: made in house; host or cells: bacteria
T2 sequence (P15036 363-443 limits assumed): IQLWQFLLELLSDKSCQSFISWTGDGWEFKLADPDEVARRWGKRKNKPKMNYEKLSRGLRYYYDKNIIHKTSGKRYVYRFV
The assay can be described thus: EMSA competition with bacterial GST-Ets2 fusion protein. The assay is classed as binding. The note with it: excess unlabeled oligonucleotide. As for the experimental part:
as §1, §2
On the technique in general: Mobility shift assays separate free from complexed probe on a gel.

Assay [1] concerns 281 bp ARF promoter fragment. Briefly: Transactivation of ARF promoter-luciferase reporter in NIH-3T3 cells. Type of assay: cell-based, mouse. As to conditions: NIH-3T3, 281 bp ARF promoter fragment-luciferase. As for the experimental part: Transactivation assays. NIH-3T3 cells were transfected with 4 μg of pGL2-ARFpro BamHI or its DMP1 binding site mutant, with or without increasing amount of pFLEX-DMP1, pEVRFO-Ets1, pCMV-Ets2, pRcRSV-Elfl, pdEB-Fli1, p(IEB-EWS-Fli1 or pCMV-E2F-1 (89-437), and 4 μg β-actin SEAP control vectors [Inoue and Sherr, Mol. Cell. Biol. 18: 1590-1600 (1998); Inoue et al., J. Biol. Chem. 273:29188-29194 (1998); Davis and Roussel, Gene 171:265-269 (1996); Baily et al., Mol. Cell. Biol. 14:3230-3241 (1994)]. Transfections and normalization of luciferase levels with internal control SEAP levels were performed as described [Inoue and Sherr, Mol. Cell. Biol. 18:1590-1600 (1998)].
Similarly, DMP1 deletion mutants defective in transactivation [Inoue and Sherr, Mol. Cell. […] Mutation of the DMP1 binding site within the ARF promoter [changing CCCGGATGC, (SEQ ID NO:33) to CCCGTCGAC, (SEQ ID NO:42)] also completely abolished transactivation by wild-type DMP1 (FIG. 14C, mutant reporter). Therefore, sequences within the −189 to −181 ARF promoter segment were the only ones responsible for DMP1-mediated transactivation. Although Ets1 could bind to a 23 base pair oligonucleotide containing the DMP1 consensus site (FIG. 14B), several Ets proteins were unable to induce significant reporter gene expression from the more complex 281 base pair ARF promoter (FIG. 14C). […]

Consider “M3: DMP1 deletion mutant (NcoI), amino acids 1-458 of SEQ ID NO:1”, for which, in the assay with recombinant DMP1, the “competition for 32P-BS1 probe binding to DMP1” value is “does not compete” and the “competition for BS2 probe binding to DMP1” value was “does not compete”. Moreover, the “competition for BS1 binding to Ets2” value with GST-Ets2 fusion protein is recorded as “competed”.
“DMP1: murine cyclin D-associated myb-like transcription factor, 761 amino acids, SEQ ID NO:1”: the “ARF promoter reporter gene expression” value in assay [1] was “enhanced reporter gene expression”.
